Numbering of substitutions follows the chain as printed. Numbers in names are those of the source.
T1: human FcγRIIb extracellular domain with C-terminal His tag (human, UniProt P31994 43-217)
T1 construct: extracellular domain; For crystals it was expressed with kifunensine and trimmed with Endo F1; also called FcgRIIb; FcγRIIb extracellular region
T1 sequence (looked up): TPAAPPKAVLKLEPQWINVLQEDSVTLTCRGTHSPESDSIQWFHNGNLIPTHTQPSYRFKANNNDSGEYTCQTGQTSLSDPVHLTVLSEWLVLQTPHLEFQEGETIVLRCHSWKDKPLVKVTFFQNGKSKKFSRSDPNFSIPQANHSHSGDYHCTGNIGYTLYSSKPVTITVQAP

B1: G237W (antibody, human IgG1, kappa)
heavy chain: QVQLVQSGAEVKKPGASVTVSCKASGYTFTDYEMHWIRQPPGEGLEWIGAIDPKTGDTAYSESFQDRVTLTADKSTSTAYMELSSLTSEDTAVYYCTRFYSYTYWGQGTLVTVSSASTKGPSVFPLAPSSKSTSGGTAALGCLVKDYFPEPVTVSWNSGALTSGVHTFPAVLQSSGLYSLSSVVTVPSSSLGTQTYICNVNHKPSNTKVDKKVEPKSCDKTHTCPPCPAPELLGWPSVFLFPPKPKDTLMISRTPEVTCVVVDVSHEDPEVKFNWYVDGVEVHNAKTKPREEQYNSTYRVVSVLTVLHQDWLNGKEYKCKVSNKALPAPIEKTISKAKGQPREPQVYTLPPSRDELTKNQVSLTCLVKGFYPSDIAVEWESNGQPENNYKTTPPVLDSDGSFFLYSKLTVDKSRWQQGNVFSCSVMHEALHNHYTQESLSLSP
light chain: DIVMTQSPLSLPVTPGEPASISCQASESLVHSNRNTYLHWYLQKPGQSPQLLIYKVSNRFSGVPDRFSGSGSGTDFTLKISRVEAEDVGVYYCSQNTHVPPTFGQGTKVEIERTVAAPSVFIFPPSDEQLKSGTASVVCLLNNFYPREAKVQWKVDNALQSGNSQESVTEQDSKDSTYSLSSTLTLSKADYEKHKVYACEVTHQGLSSPVTKSFNRGEC
notes: also called GpH7-B3 with G237W / GpL16-k0 (no P238D)
B2: G237A (antibody, human IgG1, kappa)
heavy chain: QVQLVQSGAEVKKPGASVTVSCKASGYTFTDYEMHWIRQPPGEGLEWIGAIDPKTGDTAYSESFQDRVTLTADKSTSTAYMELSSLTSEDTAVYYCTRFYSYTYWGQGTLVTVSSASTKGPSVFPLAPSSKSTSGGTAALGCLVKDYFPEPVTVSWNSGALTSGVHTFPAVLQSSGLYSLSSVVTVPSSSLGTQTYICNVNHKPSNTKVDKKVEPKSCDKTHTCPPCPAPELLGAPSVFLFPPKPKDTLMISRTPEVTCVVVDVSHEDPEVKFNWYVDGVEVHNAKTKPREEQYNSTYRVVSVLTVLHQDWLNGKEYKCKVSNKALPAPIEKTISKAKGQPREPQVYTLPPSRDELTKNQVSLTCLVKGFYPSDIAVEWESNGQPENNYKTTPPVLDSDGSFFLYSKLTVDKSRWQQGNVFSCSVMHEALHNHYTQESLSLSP
light chain: B1 light chain
notes: also called GpH7-B3 with G237A / GpL16-k0 (no P238D)
B3: G237D (antibody, human IgG1, kappa)
heavy chain: not shown
light chain: B1 light chain
notes: also called GpH7-B3 with G237D / GpL16-k0 (no P238D)
B4: G237E (antibody, human IgG1, kappa)
heavy chain: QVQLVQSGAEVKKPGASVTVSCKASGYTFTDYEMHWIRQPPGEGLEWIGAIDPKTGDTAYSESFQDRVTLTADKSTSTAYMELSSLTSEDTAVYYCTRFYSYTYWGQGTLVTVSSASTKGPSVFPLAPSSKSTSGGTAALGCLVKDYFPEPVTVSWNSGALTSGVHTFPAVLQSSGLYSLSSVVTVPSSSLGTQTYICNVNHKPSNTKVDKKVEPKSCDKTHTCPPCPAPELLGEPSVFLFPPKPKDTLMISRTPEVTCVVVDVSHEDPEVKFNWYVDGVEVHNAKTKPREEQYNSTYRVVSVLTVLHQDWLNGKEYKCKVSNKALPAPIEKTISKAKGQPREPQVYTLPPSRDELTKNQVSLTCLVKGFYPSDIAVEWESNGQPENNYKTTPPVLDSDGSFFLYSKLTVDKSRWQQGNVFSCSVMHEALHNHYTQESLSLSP
light chain: B1 light chain
notes: also called GpH7-B3 with G237E / GpL16-k0 (no P238D)
B5: G237F (antibody, human IgG1, kappa)
heavy chain: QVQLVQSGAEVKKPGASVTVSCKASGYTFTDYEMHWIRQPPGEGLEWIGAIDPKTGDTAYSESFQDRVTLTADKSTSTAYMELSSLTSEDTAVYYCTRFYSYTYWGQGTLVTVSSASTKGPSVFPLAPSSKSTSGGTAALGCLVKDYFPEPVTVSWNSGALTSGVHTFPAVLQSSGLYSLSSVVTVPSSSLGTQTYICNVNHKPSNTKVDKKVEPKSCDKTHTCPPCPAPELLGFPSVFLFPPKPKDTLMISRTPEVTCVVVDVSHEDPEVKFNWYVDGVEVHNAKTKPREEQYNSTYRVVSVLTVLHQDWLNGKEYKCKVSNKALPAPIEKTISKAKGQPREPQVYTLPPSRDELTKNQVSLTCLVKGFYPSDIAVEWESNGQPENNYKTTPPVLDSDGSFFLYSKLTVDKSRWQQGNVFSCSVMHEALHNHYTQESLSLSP
light chain: B1 light chain
notes: also called GpH7-B3 with G237F / GpL16-k0 (no P238D)
B6: G237L (antibody, human IgG1, kappa)
heavy chain: not shown
light chain: B1 light chain
notes: also called GpH7-B3 with G237L / GpL16-k0 (no P238D)
B7: G237M (antibody, human IgG1, kappa)
heavy chain: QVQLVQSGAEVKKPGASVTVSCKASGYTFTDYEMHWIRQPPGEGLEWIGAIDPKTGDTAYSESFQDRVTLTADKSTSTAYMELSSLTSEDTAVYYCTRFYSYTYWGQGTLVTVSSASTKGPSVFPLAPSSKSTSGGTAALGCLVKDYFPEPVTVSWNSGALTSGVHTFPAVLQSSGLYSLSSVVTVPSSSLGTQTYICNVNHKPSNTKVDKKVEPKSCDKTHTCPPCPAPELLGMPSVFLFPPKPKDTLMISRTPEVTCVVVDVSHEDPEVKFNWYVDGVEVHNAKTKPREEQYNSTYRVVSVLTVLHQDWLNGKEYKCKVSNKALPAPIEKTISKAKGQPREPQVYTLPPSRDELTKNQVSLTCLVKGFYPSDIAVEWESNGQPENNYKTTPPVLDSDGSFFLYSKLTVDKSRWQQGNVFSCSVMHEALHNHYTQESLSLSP
light chain: B1 light chain
notes: also called GpH7-B3 with G237M / GpL16-k0 (no P238D)
B8: G237Y (antibody, human IgG1, kappa)
heavy chain: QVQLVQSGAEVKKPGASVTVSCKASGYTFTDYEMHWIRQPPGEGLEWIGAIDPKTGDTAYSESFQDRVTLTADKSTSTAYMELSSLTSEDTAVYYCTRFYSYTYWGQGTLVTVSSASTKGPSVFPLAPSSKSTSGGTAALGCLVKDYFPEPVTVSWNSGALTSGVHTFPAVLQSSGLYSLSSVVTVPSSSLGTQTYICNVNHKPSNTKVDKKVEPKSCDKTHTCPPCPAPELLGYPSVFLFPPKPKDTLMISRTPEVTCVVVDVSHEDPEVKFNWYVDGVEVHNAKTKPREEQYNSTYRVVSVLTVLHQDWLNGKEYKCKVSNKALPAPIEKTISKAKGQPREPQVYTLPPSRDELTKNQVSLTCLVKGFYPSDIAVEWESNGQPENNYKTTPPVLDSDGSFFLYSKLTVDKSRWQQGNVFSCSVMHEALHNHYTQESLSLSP
light chain: B1 light chain
notes: also called GpH7-B3 with G237Y / GpL16-k0 (no P238D)
B9: L234W (antibody, human IgG1, kappa)
heavy chain: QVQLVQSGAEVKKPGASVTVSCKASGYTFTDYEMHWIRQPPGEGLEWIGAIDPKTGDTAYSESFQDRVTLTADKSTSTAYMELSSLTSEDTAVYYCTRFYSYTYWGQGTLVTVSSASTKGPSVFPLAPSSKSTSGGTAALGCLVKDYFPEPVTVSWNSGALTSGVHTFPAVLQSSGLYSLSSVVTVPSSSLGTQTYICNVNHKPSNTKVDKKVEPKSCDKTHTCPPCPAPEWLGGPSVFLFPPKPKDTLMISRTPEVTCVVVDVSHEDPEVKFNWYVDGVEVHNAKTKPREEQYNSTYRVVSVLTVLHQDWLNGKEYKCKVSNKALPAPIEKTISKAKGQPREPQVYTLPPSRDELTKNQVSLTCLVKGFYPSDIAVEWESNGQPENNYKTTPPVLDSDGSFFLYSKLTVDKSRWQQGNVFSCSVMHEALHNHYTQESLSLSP
light chain: B1 light chain
notes: also called GpH7-B3 with L234W / GpL16-k0 (no P238D)
B10: L234Y (antibody, human IgG1, kappa)
heavy chain: not shown
light chain: B1 light chain
notes: also called GpH7-B3 with L234Y / GpL16-k0 (no P238D)
B11: S239D (antibody, human IgG1, kappa)
heavy chain: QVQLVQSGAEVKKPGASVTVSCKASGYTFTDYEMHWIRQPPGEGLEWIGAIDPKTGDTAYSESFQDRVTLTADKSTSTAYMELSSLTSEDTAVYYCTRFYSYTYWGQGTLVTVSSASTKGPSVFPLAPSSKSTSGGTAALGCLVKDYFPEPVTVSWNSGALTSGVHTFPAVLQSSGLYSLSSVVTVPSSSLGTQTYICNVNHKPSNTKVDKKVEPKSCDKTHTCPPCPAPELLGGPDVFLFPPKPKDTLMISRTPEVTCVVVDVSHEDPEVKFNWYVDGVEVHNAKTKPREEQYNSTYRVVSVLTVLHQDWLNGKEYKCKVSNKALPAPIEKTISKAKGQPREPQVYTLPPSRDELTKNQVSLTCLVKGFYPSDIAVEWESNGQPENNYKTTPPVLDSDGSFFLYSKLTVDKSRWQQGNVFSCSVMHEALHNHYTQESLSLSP
light chain: B1 light chain
notes: also called GpH7-B3 with S239D / GpL16-k0 (no P238D)
B12: IL6R-BP264/IL6R-L (antibody, human IgG1, kappa)
heavy: QVQLQESGPGLVKPSETLSLTCAVSGHSISHDHAWSWVRQPPGEGLEWIGFISYSGITNYNPSLQGRVTISRDNSKNTLYLQMNSLRAEDTAVYYCARSLARTTAMDYWGEGTLVTVSSASTKGPSVFPLAPSSKSTSGGTAALGCLVKDYFPEPVTVSWNSGALTSGVHTFPAVLQSSGLYSLSSVVTVPSSSLGTQTYICNVNHKPSNTKVDKKVEPKSCDKTHTCPPCPAPDLLGDDSVFLFPPKPKDTLMISRTPEVTCVVVDVSEEDGEVKFNWYVDGVEVHNAKTKPREEQDNSTYRVVSVLTVLHQDWLNGKEYKCKVSNKALPRPIEKTISKAKGQPREPQVYTLPPSRDELTKNQVSLTCLVKGFYPSDIAVEWESNGQPENNYKTTPPVLDSDGSFFLYSKLTVDKSRWQQGNVFSCSVMHEALHNHYTQESLSLSP
light: not shown
B13: IL6R-BP436/IL6R-L (antibody, human IgG1, kappa)
heavy: B12 heavy with S269A, I334T
light: not shown
B14: IL6R-BP487/IL6R-L (antibody, human IgG1, kappa)
heavy: B12 heavy with V266I, S269A, D298Y, P398M
light: not shown
B15: IL6R-BP488/IL6R-L (antibody, human IgG1, kappa)
heavy: B12 heavy with V266I, S269A
light: not shown
B16: IL6R-BP489/IL6R-L (antibody, human IgG1, kappa)
heavy: B12 heavy with V266I, S269A, P398M
light: not shown
B17: IL6R-BP490/IL6R-L (antibody, human IgG1, kappa)
heavy: B12 heavy with D235E, V266I, S269A, D298Y
light: not shown
B18: IL6R-BP491/IL6R-L (antibody, human IgG1, kappa)
heavy: B12 heavy with D235E, V266I, S269A
light: not shown
B19: IL6R-BP492/IL6R-L (antibody, human IgG1, kappa)
heavy: B12 heavy with D235E, D239G, V266I, S269A, D298Y, R332A
light: not shown
B20: IL6R-BP493/IL6R-L (antibody, human IgG1, kappa)
heavy: B12 heavy with D235E, D239G, V266I, S269A, R332A
light: not shown
B21: IL6R-BP494/IL6R-L (antibody, human IgG1, kappa)
heavy: B12 heavy with D235E, S269A
light: not shown
B22: IL6R-BP495/IL6R-L (antibody, human IgG1, kappa)
heavy: B12 heavy with D235E, S269G
light: not shown
B23: IL6R-BP498/IL6R-L (antibody, human IgG1, kappa)
heavy: B12 heavy with V266I, S269A, D298Y, P398L
light: not shown
B24: IL6R-BP499/IL6R-L (antibody, human IgG1, kappa)
heavy: B12 heavy with V266I, S269A, P398L
light: not shown
B25: IL6R-BP503/IL6R-L (antibody, human IgG1, kappa)
heavy: B12 heavy with V266I, S269A, A329G, P398M
light: not shown
B26: IL6R-BP510/IL6R-L (antibody, human IgG1, kappa)
heavy: B12 heavy with D235E, V266I, S269A, E274P, D298Y
light: not shown
notes: also called IL6R-BP510/L6R-L
B27: IL6R-BP511/IL6R-L (antibody, human IgG1, kappa)
heavy: B12 heavy with D235E, V266I, S269A, E274P
light: not shown
B28: IL6R-BP567/IL6R-L (antibody, human IgG1, kappa)
heavy: B12 heavy with D239G, V266I, S269A, R332A
light: not shown
B29: mutation B (antibody, human IgG1, kappa)
heavy chain: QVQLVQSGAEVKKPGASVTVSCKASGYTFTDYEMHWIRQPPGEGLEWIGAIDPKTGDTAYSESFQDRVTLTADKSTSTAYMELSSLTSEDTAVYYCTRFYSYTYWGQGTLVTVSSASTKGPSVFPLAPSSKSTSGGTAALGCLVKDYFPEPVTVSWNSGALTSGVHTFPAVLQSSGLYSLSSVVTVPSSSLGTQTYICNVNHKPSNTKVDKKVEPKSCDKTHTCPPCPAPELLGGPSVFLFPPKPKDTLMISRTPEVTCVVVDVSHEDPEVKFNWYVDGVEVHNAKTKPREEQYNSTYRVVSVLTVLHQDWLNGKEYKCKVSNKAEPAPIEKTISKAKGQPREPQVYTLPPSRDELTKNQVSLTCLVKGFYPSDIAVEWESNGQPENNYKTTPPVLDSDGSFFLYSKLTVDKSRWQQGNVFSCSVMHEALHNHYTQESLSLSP
light chain: B1 light chain
notes: Legend: mutation B = Leu at 328 (EU numbering) substituted with Glu
B30: mutation A (antibody, human IgG1, kappa)
heavy chain: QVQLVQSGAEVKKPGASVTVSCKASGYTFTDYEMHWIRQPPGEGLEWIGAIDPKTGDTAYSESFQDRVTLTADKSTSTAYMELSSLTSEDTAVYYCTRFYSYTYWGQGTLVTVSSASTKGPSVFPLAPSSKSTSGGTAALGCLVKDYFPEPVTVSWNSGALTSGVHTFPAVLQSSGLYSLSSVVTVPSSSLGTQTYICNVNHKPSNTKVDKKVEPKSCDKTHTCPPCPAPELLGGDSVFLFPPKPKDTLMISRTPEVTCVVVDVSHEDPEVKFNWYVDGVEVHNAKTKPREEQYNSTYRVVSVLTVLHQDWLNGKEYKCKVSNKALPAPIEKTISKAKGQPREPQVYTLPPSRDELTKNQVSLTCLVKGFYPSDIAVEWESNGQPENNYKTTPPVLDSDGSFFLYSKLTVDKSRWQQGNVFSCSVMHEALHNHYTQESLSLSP
light chain: B1 light chain
B31: IL6R-BP568/IL6R-L (antibody)
heavy: B12 heavy with D239G, V266I, S269A, D298Y, R332A
light: not shown
B32: IL6R-BP479/IL6R-L (antibody)
chain 1: B12 heavy with V266I, V268L, S269A, D298Y, R332A
chain 2: not shown

What was measured:
[1] = biological target: T1, human FcγRIIb extracellular domain with …; assay: SPR (Biacore): amount of FcγRIIb bound per captured antibody, relative to the pre-altered antibody GpH7-B3/GpL16-k0 = 100 (Reference Examples 2, 3 and 6)
[2] = biological target: T1, human FcγRIIb extracellular domain with …; assay: SPR (Biacore), KD by the method of Reference Example 2 (Example 9-3)
Description: These variants were used for antibody expression and purification according to the method of Reference Example 1, and binding to each FcgR (FcgRIa. FcgRIIa type H, FcgRIIa type R, FcgRIIb, and FcgRIIIa type V) was assessed using the method of Reference Example 2.

[3] = biological target: T2, human FcγRIa extracellular domain with C-terminal His tag (human, UniProt P12314 16-292); assay: SPR
T2 construct: Whole entry named; also called FcgRIa; FcgIa

[4] = biological target: T1, human FcγRIIb extracellular domain with …; assay: SPR
[5] = biological target: T1, human FcγRIIb extracellular domain with …; assay: SPR KD ratio
[6] = biological target: T1, human FcγRIIb extracellular domain with …; assay: SPR KD ratio; reference is the same variant's KD for FcγRIIaR
[7] = biological target: T2, human FcγRIa extracellular domain with …; assay: SPR (Biacore): antibody captured on the chip, FcγR as analyte; amount bound divided by amount of antibody captured, relative to the antibody without mutation in B3 = 100 (Reference Examples 2 and 3)
[8] = biological target: T3, FcγRIIIa extracellular domain with C-terminal His tag, allotype not stated (Reference Example 4) (human, UniProt P08637 17-208); assay: as above
T3 construct: extracellular domain
T3 sequence (P08637 17-208): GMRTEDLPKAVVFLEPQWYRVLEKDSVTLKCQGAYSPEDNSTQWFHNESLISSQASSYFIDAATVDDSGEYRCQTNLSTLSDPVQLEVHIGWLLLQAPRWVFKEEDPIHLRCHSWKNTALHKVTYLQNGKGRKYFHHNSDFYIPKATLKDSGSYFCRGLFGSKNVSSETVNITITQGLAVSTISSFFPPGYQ

T2 sequence (P12314 16-292): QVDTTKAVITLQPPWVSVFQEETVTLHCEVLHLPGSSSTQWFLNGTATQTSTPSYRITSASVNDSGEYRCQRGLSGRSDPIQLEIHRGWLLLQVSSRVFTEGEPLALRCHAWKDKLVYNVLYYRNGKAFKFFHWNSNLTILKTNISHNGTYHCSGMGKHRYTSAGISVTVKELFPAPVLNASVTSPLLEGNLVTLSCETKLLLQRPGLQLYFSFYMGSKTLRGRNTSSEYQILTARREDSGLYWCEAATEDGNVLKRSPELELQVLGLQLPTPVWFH

| Binder | binding result [1] | binding result [4] | other results |
| --- | --- | --- | --- |
| B1 | binds | – | – |
| B2 | binds | – | – |
| B3 | binds | – | – |
| B4 | binds | – | – |
| B5 | binds | – | – |
| B6 | binds | – | – |
| B7 | binds | – | – |
| B8 | binds | – | – |
| B9 | binds | – | – |
| B10 | binds | – | – |
| B11 | binds | – | – |
| B12 | – | – | binding result [2]: binds |
| B13 | – | binds | binding result [3]: binds |
| B14 | – | binds | – |
| B15 | – | binds | – |
| B16 | – | – | fold binding (IL6R-B3/IL6R-L = 1) [5]: 3100 times |

| Binder | binding result [1] | binding result [4] | other results |
| --- | --- | --- | --- |
| B17 | – | binds | – |
| B18 | – | binds | – |
| B19 | – | – | fold binding against the native form [5]: 131 fold |
| B20 | – | – | fold binding against the native form [5]: 147 fold |
| B21 | – | binds | – |
| B22 | – | – | fold binding (IL6R-B3/IL6R-L = 1) [5]: 321 times |
| B23 | – | binds | – |
| B24 | – | binds | – |
| B25 | – | binds | – |
| B26 | – | binds | – |
| B27 | – | binds | – |
| B28 | – | – | binding result [3]: binds; KD (IIaR)/KD (IIb) [6]: 64.4 |
| B29 | – | – | binding result [7]: binds |
| B30 | – | – | binding result [7]: binds; binding result [8]: no binding |
| B31 | – | – | fold binding against the native form [5]: 211 fold |
| B32 | – | – | KD (IIaR)/KD (IIb) [6]: 16.1 |

Source: patent US20150299296A1 (Chugai, published 2015)
